# Experimental data from US20140066321A1 (PANGU BIOPHARMA, published 2014).
# B1: human HRS variant with deletion of residues 1-53 and residues 507-509 (HRS Δ1-53-Δ507-509) (enzyme)
# chain: FVLKTPKGTRDYSPRQMAVREKVFDVIIRCFKRHGAEVIDTPVFELKETLMGKYGEDSKLIYDLKDQGGELLSLRYDLTVPFARYLAMNKLTNIKRYHIAKVYRRDNPAMTRGRYREFYQCDFDIAGNFDPMIPDAECLKIMCEILSSLQIGDFLVKVNDRRILDGMFAICGVSDSKFRTICSSVDKLDKVSWEEVKNEMVGEKGLAPEVADRIGDYVQQHGGVSLVEQLLQDPKLSQNKQALEGLGDLKLLFEYLTLFGIDDKISFDLSLARGLDYYTGVIYEAVLLQTPAQAGEEPLGVGSVAAGGRYDGLVGMFDPKGRKVPCVGLSIGVERIFSIVEQRLEALEEKIRTTETQVLVASAQKKLLEERLKLVSELWDAGIKAELLYKKNPKLLNQLQYCEEAGIPLVAIIGEQELKDGVIKLRSVTSREEVDVRREDLVEEIKRRTGQPL
# notes: the row under measurements tells of its self-association into a dimer in the crystal structure
# B2: human HRS variant with deletion of residues 507-509 (HRS Δ507-509) (enzyme)
# chain: MAERAALEELVKLQGERVRGLKQQKASAELIEEEVAKLLKLKAQLGPDESKQKFVLKTPKGTRDYSPRQMAVREKVFDVIIRCFKRHGAEVIDTPVFELKETLMGKYGEDSKLIYDLKDQGGELLSLRYDLTVPFARYLAMNKLTNIKRYHIAKVYRRDNPAMTRGRYREFYQCDFDIAGNFDPMIPDAECLKIMCEILSSLQIGDFLVKVNDRRILDGMFAICGVSDSKFRTICSSVDKLDKVSWEEVKNEMVGEKGLAPEVADRIGDYVQQHGGVSLVEQLLQDPKLSQNKQALEGLGDLKLLFEYLTLFGIDDKISFDLSLARGLDYYTGVIYEAVLLQTPAQAGEEPLGVGSVAAGGRYDGLVGMFDPKGRKVPCVGLSIGVERIFSIVEQRLEALEEKIRTTETQVLVASAQKKLLEERLKLVSELWDAGIKAELLYKKNPKLLNQLQYCEEAGIPLVAIIGEQELKDGVIKLRSVTSREEVDVRREDLVEEIKRRTGQPL
# notes: the row under measurements tells of its self-association into a dimer (size exclusion chromatography)
# Assays:
# [1] = molecular target: the molecule itself; assay: X-ray crystal structure at 2.4 Å (self-association, homodimer)
# Method: To set up a […], 1 μl of protein sample was mixed with 1 μl of crystallization solution with 0.2 M ammonium citrate. […] Before diffraction experiments, crystals were soaked in crystallization solution containing […] for cryoprotection. […] Specifically, crystals were soaked in crystallization solution containing 10-20% glycerol for 5-10 mins. The diffraction data were collected at the Shanghai Synchrotron Radiation Facility and were processed and scaled using HKL2000.
# The phase was improved by density modifications with RESOLVE. The initial model was built in COOT. […] The models were refined in Refmac5 and PHENIX. […] All structure figures were prepared by PyMOL
# [2] = molecular target: the molecule itself; assay: size exclusion chromatography (self-association, homodimer)
# Method: The cDNA encoding native human cytoplasmic HRS and the splice variant HRSΔCD were cloned into a modified pET32 vector and fused to the N-terminal thioredoxin-His₆-tags. The fusion proteins were expressed in E. coli BL21(DE3) and first purified by Ni²⁺-NTA affinity chromatography Next, the thioredoxin-His₆-tag was removed by protease-3C digestion. The cleaved protein mixtures were further separated by a size-exclusion chromatography in a buffer containing 50 mM Tris (pH 7.5), 100 mM NaCl, 1 mM EDTA and 1 mM […] Native HRS and HRSΔCD mutants were created using the standard PCR-based mutagenesis method. The mutant proteins were purified using a protocol identical to that used for native HRS and HRSΔCD. Analytical gel filtration chromatography was carried out on an AKTA FPLC system (GE Healthcare). Proteins were loaded onto a Superose 12 10/300 GL column (GE Healthcare) equilibrated with a buffer containing 50 mM Tris (pH 7.5), 100 mM NaCl, […] EDTA and 1 mM […].
Protein,binding result [1],binding result [2]
B1,binds,–
B2,–,binds
